From US20230399395A1

How the values were obtained:
[1] = biological target: IL5 (human) (UniProt P05113); assay: ELISA
[2] = biological target: IL5 (human) (UniProt P05113); assay: flow cytometry blocking IL5/IL5R
[3] = biological target: IL5 (human) (UniProt P05113); assay: flow cytometry blocking IL5/IL5R; remark: listed apart in the source
[4] = biological target: IL5 (human) (UniProt P05113); assay: Flow cytometry, blocking of IL5-biotin binding to HEK293F cells expressing IL5R
[5] = biological target: IL5 (human) (UniProt P05113); assay: cell-based or functional assay

Row | IC50 [4] [µg/mL] | IC50 of inhibition of the proliferation of TF-1 cells induced by IL5 (CCK8, OD450) [5] [nM] | Substance | EC50 [1] [µg/mL] | IC50 [2] [µg/mL] | IC50 [3] [µg/mL]
1 | – | – | Control Ab Nucala | 0.0563 | 2.36 | 2.96
2 | 2.04 | 0.178 | Nucala (antibody) | – | – | –
